Assay results published in patent US20240352434, “COMPOSITIONS COMPRISING A VARIANT CAS12I3 POLYPEPTIDE AND USES THEREOF” (Arbor Biotechnologies, Inc., published 2024).

T1: Cas12i3 S536R (Unidentified, S536R)
T1 chain: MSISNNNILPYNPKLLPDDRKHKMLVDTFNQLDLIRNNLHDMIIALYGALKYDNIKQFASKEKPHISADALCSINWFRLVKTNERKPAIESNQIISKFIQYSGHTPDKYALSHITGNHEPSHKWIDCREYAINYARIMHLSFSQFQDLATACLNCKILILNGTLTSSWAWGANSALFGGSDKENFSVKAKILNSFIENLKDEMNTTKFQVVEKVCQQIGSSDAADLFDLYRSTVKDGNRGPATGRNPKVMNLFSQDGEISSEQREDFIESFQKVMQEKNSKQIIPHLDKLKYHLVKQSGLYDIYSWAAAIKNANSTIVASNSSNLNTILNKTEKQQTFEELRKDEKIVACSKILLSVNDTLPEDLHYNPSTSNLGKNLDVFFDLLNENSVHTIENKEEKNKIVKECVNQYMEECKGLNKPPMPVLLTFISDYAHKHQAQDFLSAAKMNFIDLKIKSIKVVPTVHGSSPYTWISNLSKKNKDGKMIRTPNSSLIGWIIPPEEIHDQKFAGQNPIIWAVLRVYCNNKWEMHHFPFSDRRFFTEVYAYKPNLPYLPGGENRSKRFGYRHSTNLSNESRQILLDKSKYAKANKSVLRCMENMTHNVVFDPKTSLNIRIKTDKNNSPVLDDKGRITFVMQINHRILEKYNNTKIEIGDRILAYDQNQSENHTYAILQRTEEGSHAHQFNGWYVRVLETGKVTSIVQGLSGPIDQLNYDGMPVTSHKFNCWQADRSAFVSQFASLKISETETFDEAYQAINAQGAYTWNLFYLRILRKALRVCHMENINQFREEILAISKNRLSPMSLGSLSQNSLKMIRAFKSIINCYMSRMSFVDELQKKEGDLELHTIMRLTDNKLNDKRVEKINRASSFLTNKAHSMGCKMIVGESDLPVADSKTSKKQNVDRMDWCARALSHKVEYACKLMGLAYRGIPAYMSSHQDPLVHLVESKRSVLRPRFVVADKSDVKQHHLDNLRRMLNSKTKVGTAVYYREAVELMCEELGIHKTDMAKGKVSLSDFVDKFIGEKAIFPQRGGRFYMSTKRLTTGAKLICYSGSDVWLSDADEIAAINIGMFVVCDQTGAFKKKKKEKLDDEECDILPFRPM

T2: Cas12i3 S559R (Unidentified, S559R)
T2 chain: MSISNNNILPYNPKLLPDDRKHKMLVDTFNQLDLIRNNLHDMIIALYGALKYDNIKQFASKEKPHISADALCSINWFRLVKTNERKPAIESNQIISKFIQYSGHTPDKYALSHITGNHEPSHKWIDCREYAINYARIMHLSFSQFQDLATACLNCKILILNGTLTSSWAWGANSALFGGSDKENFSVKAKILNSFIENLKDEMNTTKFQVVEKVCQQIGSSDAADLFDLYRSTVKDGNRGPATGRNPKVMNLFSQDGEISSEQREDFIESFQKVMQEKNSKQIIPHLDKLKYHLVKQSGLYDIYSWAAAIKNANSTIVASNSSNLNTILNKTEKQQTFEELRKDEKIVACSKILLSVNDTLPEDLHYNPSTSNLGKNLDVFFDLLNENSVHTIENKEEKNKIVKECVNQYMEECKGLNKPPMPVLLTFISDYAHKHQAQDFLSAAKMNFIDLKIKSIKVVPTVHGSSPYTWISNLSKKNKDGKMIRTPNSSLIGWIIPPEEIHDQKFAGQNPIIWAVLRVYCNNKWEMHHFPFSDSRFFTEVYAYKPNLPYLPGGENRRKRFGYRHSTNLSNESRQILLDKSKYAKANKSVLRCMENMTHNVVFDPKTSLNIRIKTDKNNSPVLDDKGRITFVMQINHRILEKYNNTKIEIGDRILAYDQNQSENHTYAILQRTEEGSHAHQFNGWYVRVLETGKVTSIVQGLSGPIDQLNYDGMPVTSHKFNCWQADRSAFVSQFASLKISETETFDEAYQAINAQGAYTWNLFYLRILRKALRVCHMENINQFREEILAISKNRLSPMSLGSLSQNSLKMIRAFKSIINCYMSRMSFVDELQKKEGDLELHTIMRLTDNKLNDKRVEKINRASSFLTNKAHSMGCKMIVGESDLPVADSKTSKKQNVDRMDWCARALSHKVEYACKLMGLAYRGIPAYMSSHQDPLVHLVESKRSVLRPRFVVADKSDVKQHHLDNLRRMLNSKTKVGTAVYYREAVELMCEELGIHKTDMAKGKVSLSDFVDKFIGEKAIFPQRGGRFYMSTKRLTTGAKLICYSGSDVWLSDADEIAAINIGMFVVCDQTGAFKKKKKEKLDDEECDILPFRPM


Key:
Cas12i3 S536R = biological target: T1, Cas12i3 S536R; test: cell_activity; fold change in % indels, HEK293T; PAM not stated in example
Procedure, shortened: (§1)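 HEK293T cells lipofected with Lipofectamine 2000 (crRNA omitted in negative controls). Harvested 72 h post-transfection and lysed in QuickExtract. Target loci amplified by two-round PCR and sequenced on NextSeq (150 cycles) to quantify % indels.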

Cas12i3 S559R = biological target: T2, Cas12i3 S559R; test: as above
Procedure, shortened: as §1

Binder	binding signal (Cas12i3 S536R)	binding signal (Cas12i3 S559R)
EMX1_T5 crRNA ; EMX1_T5 target (ssRNA ; dsDNA) RNA: AUAGUGUGUCCUUAGUUGACAUUAUUAUUCCCAUAGGGAAGG DNA 1: TATTATTCCCATAGGGAAGG DNA 2: CCTTCCCTATGGGAATAATA	1.27 fold of wild-type	0.95 fold of wild-type
AAVS1_T3 crRNA ; AAVS1_T3 target (ssRNA ; dsDNA) RNA: AUAGUGUGUCCUUAGUUGACAUGUGAGAAUGGUGCGUCCUAG DNA 1: GTGAGAATGGTGCGTCCTAG DNA 2: CTAGGACGCACCATTCTCAC	2.16 fold of wild-type	1.28 fold of wild-type
VEGFA_T2 crRNA ; VEGFA_T2 target (ssRNA ; dsDNA) RNA: AUAGUGUGUCCUUAGUUGACAUAAUCCUCCACCAGUCAUGGU DNA 1: AATCCTCCACCAGTCATGGT DNA 2: ACCATGACTGGTGGAGGATT	1.8 fold of wild-type	1.17 fold of wild-type
